Here are results for six molecules from patent publication US20140087995A1 (published 2014).

To fix the notation:
B1: N^ε1-[2-[2-[2-[[(4S)-4-carboxy-4-(19-carboxynonadecanoylamino)butanoyl]amino]ethoxy]ethoxy]acetyl]-[His14,Arg17,Pro21,Pro27]-h-amylin (peptide)
peptide: K([AEEA-γGlu-C20 diacid])CNTATCATQRLAHFLRHSSPNFGAIPSSTNVGSNTY-NH2
modifications: disulfide 2-7; N-terminus assumed
SMILES: CC[C@H](C)[C@H](NC(=O)[C@H](C)NC(=O)CNC(=O)[C@H](Cc1ccccc1)NC(=O)[C@H](CC(N)=O)NC(=O)[C@@H]1CCCN1C(=O)[C@H](CO)NC(=O)[C@H](CO)NC(=O)[C@H](Cc1c[nH]cn1)NC(=O)[C@H](CCCNC(=N)N)NC(=O)[C@H](CC(C)C)NC(=O)[C@H](Cc1ccccc1)NC(=O)[C@H](Cc1c[nH]cn1)NC(=O)[C@H](C)NC(=O)[C@H](CC(C)C)NC(=O)[C@H](CCCNC(=N)N)NC(=O)[C@H](CCC(N)=O)NC(=O)[C@@H](NC(=O)[C@H](C)NC(=O)[C@@H]1CSSC[C@H](NC(=O)[C@@H](N)CCCCNC(=O)COCCOCCNC(=O)CC[C@H](NC(=O)CCCCCCCCCCCCCCCCCCC(=O)O)C(=O)O)C(=O)N[C@@H](CC(N)=O)C(=O)N[C@@H]([C@@H](C)O)C(=O)N[C@@H](C)C(=O)N[C@@H]([C@@H](C)O)C(=O)N1)[C@@H](C)O)C(=O)N1CCC[C@H]1C(=O)N[C@@H](CO)C(=O)N[C@@H](CO)C(=O)N[C@H](C(=O)N[C@@H](CC(N)=O)C(=O)N[C@H](C(=O)NCC(=O)N[C@@H](CO)C(=O)N[C@@H](CC(N)=O)C(=O)N[C@H](C(=O)N[C@@H](Cc1ccc(O)cc1)C(N)=O)[C@@H](C)O)C(C)C)[C@@H](C)O
notes: also called compound 69
B2: N^ε1-[2-[2-[2-(19-carboxynonadecanoylamino)ethoxy]ethoxy]acetyl]-[Arg17,Pro21,Pro27,His34]-h-amylin (peptide)
peptide: K([AEEA-C20 diacid])CNTATCATQRLANFLRHSSPNFGAIPSSTNVGHNTY-NH2
modifications: disulfide 2-7; N-terminus assumed
SMILES: CC[C@H](C)[C@H](NC(=O)[C@H](C)NC(=O)CNC(=O)[C@H](Cc1ccccc1)NC(=O)[C@H](CC(N)=O)NC(=O)[C@@H]1CCCN1C(=O)[C@H](CO)NC(=O)[C@H](CO)NC(=O)[C@H](Cc1c[nH]cn1)NC(=O)[C@H](CCCNC(=N)N)NC(=O)[C@H](CC(C)C)NC(=O)[C@H](Cc1ccccc1)NC(=O)[C@H](CC(N)=O)NC(=O)[C@H](C)NC(=O)[C@H](CC(C)C)NC(=O)[C@H](CCCNC(=N)N)NC(=O)[C@H](CCC(N)=O)NC(=O)[C@@H](NC(=O)[C@H](C)NC(=O)[C@@H]1CSSC[C@H](NC(=O)[C@@H](N)CCCCNC(=O)COCCOCCNC(=O)CCCCCCCCCCCCCCCCCCC(=O)O)C(=O)N[C@@H](CC(N)=O)C(=O)N[C@@H]([C@@H](C)O)C(=O)N[C@@H](C)C(=O)N[C@@H]([C@@H](C)O)C(=O)N1)[C@@H](C)O)C(=O)N1CCC[C@H]1C(=O)N[C@@H](CO)C(=O)N[C@@H](CO)C(=O)N[C@H](C(=O)N[C@@H](CC(N)=O)C(=O)N[C@H](C(=O)NCC(=O)N[C@@H](Cc1c[nH]cn1)C(=O)N[C@@H](CC(N)=O)C(=O)N[C@H](C(=O)N[C@@H](Cc1ccc(O)cc1)C(N)=O)[C@@H](C)O)C(C)C)[C@@H](C)O
notes: also called compound 91
B3: N^ε1-[2-[2-[2-[[2-[2-[2-[[(4S)-4-carboxy-4-(19-carboxynonadecanoylamino)butanoyl]amino]ethoxy]ethoxy]acetyl]amino]ethoxy]ethoxy]acetyl]-[Arg17,Pro21,Pro27,Pro34 … (peptide)
peptide: K([AEEA-AEEA-γGlu-C20 diacid])CNTATCATQRLANFLRHSSPNFGAIPSSTNVGPNTY-NH2
modifications: disulfide 2-7; N-terminus assumed
SMILES: CC[C@H](C)[C@H](NC(=O)[C@H](C)NC(=O)CNC(=O)[C@H](Cc1ccccc1)NC(=O)[C@H](CC(N)=O)NC(=O)[C@@H]1CCCN1C(=O)[C@H](CO)NC(=O)[C@H](CO)NC(=O)[C@H](Cc1c[nH]cn1)NC(=O)[C@H](CCCNC(=N)N)NC(=O)[C@H](CC(C)C)NC(=O)[C@H](Cc1ccccc1)NC(=O)[C@H](CC(N)=O)NC(=O)[C@H](C)NC(=O)[C@H](CC(C)C)NC(=O)[C@H](CCCNC(=N)N)NC(=O)[C@H](CCC(N)=O)NC(=O)[C@@H](NC(=O)[C@H](C)NC(=O)[C@@H]1CSSC[C@H](NC(=O)[C@@H](N)CCCCNC(=O)COCCOCCNC(=O)COCCOCCNC(=O)CC[C@H](NC(=O)CCCCCCCCCCCCCCCCCCC(=O)O)C(=O)O)C(=O)N[C@@H](CC(N)=O)C(=O)N[C@@H]([C@@H](C)O)C(=O)N[C@@H](C)C(=O)N[C@@H]([C@@H](C)O)C(=O)N1)[C@@H](C)O)C(=O)N1CCC[C@H]1C(=O)N[C@@H](CO)C(=O)N[C@@H](CO)C(=O)N[C@H](C(=O)N[C@@H](CC(N)=O)C(=O)N[C@H](C(=O)NCC(=O)N1CCC[C@H]1C(=O)N[C@@H](CC(N)=O)C(=O)N[C@H](C(=O)N[C@@H](Cc1ccc(O)cc1)C(N)=O)[C@@H](C)O)C(C)C)[C@@H](C)O
notes: also called compound 98
B4: N^ε1-[2-[2-[2-[[2-[2-[2-[[(4S)-4-carboxy-4-(19-carboxynonadecanoylamino)butanoyl]amino]ethoxy]ethoxy]acetyl]amino]ethoxy]ethoxy]acetyl]-[Arg17,Pro21,Pro27,Pro31 … (peptide)
peptide: K([AEEA-AEEA-γGlu-C20 diacid])CNTATCATQRLANFLRHSSPNFGAIPSSTPVGSNTY-NH2
modifications: disulfide 2-7; N-terminus assumed
SMILES: CC[C@H](C)[C@H](NC(=O)[C@H](C)NC(=O)CNC(=O)[C@H](Cc1ccccc1)NC(=O)[C@H](CC(N)=O)NC(=O)[C@@H]1CCCN1C(=O)[C@H](CO)NC(=O)[C@H](CO)NC(=O)[C@H](Cc1c[nH]cn1)NC(=O)[C@H](CCCNC(=N)N)NC(=O)[C@H](CC(C)C)NC(=O)[C@H](Cc1ccccc1)NC(=O)[C@H](CC(N)=O)NC(=O)[C@H](C)NC(=O)[C@H](CC(C)C)NC(=O)[C@H](CCCNC(=N)N)NC(=O)[C@H](CCC(N)=O)NC(=O)[C@@H](NC(=O)[C@H](C)NC(=O)[C@@H]1CSSC[C@H](NC(=O)[C@@H](N)CCCCNC(=O)COCCOCCNC(=O)COCCOCCNC(=O)CC[C@H](NC(=O)CCCCCCCCCCCCCCCCCCC(=O)O)C(=O)O)C(=O)N[C@@H](CC(N)=O)C(=O)N[C@@H]([C@@H](C)O)C(=O)N[C@@H](C)C(=O)N[C@@H]([C@@H](C)O)C(=O)N1)[C@@H](C)O)C(=O)N1CCC[C@H]1C(=O)N[C@@H](CO)C(=O)N[C@@H](CO)C(=O)N[C@H](C(=O)N1CCC[C@H]1C(=O)N[C@H](C(=O)NCC(=O)N[C@@H](CO)C(=O)N[C@@H](CC(N)=O)C(=O)N[C@H](C(=O)N[C@@H](Cc1ccc(O)cc1)C(N)=O)[C@@H](C)O)C(C)C)[C@@H](C)O
notes: also called compound 96
B5: N^ε1-[2-[2-[2-[[2-[2-[2-[[(4S)-4-carboxy-4-(19-carboxynonadecanoylamino)butanoyl]amino]ethoxy]ethoxy]acetyl]amino]ethoxy]ethoxy]acetyl]-[Arg17,Pro21,Pro27,His34 … (peptide)
peptide: K([AEEA-AEEA-γGlu-C20 diacid])CNTATCATQRLANFLRHSSPNFGAIPSSTNVGHNTY-NH2
modifications: disulfide 2-7; N-terminus assumed
SMILES: CC[C@H](C)[C@H](NC(=O)[C@H](C)NC(=O)CNC(=O)[C@H](Cc1ccccc1)NC(=O)[C@H](CC(N)=O)NC(=O)[C@@H]1CCCN1C(=O)[C@H](CO)NC(=O)[C@H](CO)NC(=O)[C@H](Cc1c[nH]cn1)NC(=O)[C@H](CCCNC(=N)N)NC(=O)[C@H](CC(C)C)NC(=O)[C@H](Cc1ccccc1)NC(=O)[C@H](CC(N)=O)NC(=O)[C@H](C)NC(=O)[C@H](CC(C)C)NC(=O)[C@H](CCCNC(=N)N)NC(=O)[C@H](CCC(N)=O)NC(=O)[C@@H](NC(=O)[C@H](C)NC(=O)[C@@H]1CSSC[C@H](NC(=O)[C@@H](N)CCCCNC(=O)COCCOCCNC(=O)COCCOCCNC(=O)CC[C@H](NC(=O)CCCCCCCCCCCCCCCCCCC(=O)O)C(=O)O)C(=O)N[C@@H](CC(N)=O)C(=O)N[C@@H]([C@@H](C)O)C(=O)N[C@@H](C)C(=O)N[C@@H]([C@@H](C)O)C(=O)N1)[C@@H](C)O)C(=O)N1CCC[C@H]1C(=O)N[C@@H](CO)C(=O)N[C@@H](CO)C(=O)N[C@H](C(=O)N[C@@H](CC(N)=O)C(=O)N[C@H](C(=O)NCC(=O)N[C@@H](Cc1c[nH]cn1)C(=O)N[C@@H](CC(N)=O)C(=O)N[C@H](C(=O)N[C@@H](Cc1ccc(O)cc1)C(N)=O)[C@@H](C)O)C(C)C)[C@@H](C)O
notes: also called compound 97
B6: N^ε1-[2-[2-[2-[[2-[2-[2-[[(4S)-4-carboxy-4-(19-carboxynonadecanoylamino)butanoyl]amino]ethoxy]ethoxy]acetyl]amino]ethoxy]ethoxy]acetyl]-[Arg17,Pro21,Pro27,Arg34 … (peptide)
peptide: K([AEEA-AEEA-γGlu-C20 diacid])CNTATCATQRLANFLRHSSPNFGAIPSSTNVGRNTY-NH2
modifications: disulfide 2-7; N-terminus assumed
SMILES: CC[C@H](C)[C@H](NC(=O)[C@H](C)NC(=O)CNC(=O)[C@H](Cc1ccccc1)NC(=O)[C@H](CC(N)=O)NC(=O)[C@@H]1CCCN1C(=O)[C@H](CO)NC(=O)[C@H](CO)NC(=O)[C@H](Cc1c[nH]cn1)NC(=O)[C@H](CCCNC(=N)N)NC(=O)[C@H](CC(C)C)NC(=O)[C@H](Cc1ccccc1)NC(=O)[C@H](CC(N)=O)NC(=O)[C@H](C)NC(=O)[C@H](CC(C)C)NC(=O)[C@H](CCCNC(=N)N)NC(=O)[C@H](CCC(N)=O)NC(=O)[C@@H](NC(=O)[C@H](C)NC(=O)[C@@H]1CSSC[C@H](NC(=O)[C@@H](N)CCCCNC(=O)COCCOCCNC(=O)COCCOCCNC(=O)CC[C@H](NC(=O)CCCCCCCCCCCCCCCCCCC(=O)O)C(=O)O)C(=O)N[C@@H](CC(N)=O)C(=O)N[C@@H]([C@@H](C)O)C(=O)N[C@@H](C)C(=O)N[C@@H]([C@@H](C)O)C(=O)N1)[C@@H](C)O)C(=O)N1CCC[C@H]1C(=O)N[C@@H](CO)C(=O)N[C@@H](CO)C(=O)N[C@H](C(=O)N[C@@H](CC(N)=O)C(=O)N[C@H](C(=O)NCC(=O)N[C@@H](CCCNC(=N)N)C(=O)N[C@@H](CC(N)=O)C(=O)N[C@H](C(=O)N[C@@H](Cc1ccc(O)cc1)C(N)=O)[C@@H](C)O)C(C)C)[C@@H](C)O
notes: also called compound 95

Numbered stars: 1 amine (or outer) side, 2 acyl side, 3 side chain; on linkers, the order of the positions; unused ones are H or OH. Bridge positions count the residues as written; N and C are the ends. Side chains are listed from the residue outwards. Ends that are not written are not given here. * marks the point of attachment. C20 diacid = O=C(O)CCCCCCCCCCCCCCCCCCC(=O)*; γGlu = O=C(O)[C@H](CCC(=O)[*:2])N[*:1]; AEEA = NCCOCCOCC(=O)O

In the test the target is T1, human calcitonin receptor (human, UniProt P30988 25-474).
T1 sequence (looked up): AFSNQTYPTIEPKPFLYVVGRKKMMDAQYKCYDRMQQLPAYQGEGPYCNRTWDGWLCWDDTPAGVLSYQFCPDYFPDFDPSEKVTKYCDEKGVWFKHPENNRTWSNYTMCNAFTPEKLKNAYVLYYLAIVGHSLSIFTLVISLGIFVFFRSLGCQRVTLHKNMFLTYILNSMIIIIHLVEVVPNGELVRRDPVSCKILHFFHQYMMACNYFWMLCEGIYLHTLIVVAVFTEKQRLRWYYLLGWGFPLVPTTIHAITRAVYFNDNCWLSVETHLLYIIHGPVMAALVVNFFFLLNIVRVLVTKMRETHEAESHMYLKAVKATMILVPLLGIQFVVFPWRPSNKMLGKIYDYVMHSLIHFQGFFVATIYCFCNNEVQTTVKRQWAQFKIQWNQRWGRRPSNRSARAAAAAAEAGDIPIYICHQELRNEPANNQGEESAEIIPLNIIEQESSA
Nature of the test: cell-based or functional assay.
Take B1: the “hCTR funct. EC50” value was 1250 pM.

As to B2, the “hCTR funct. EC50” value came to 1480 pM.

As to B3, the “hCTR funct. EC50” value is 1630 pM.

On to B4, for which the “hCTR funct. EC50” value came to 3800 pM.

For the molecule B5, the “hCTR funct. EC50” value came to 11800 pM.

As to B6, the “hCTR funct. EC50” value is 21500 pM.
